Results from patent US20240043504A1 (published 2024).
Changes are numbered by the printed parent chain.

B1: mAb10985 (antibody, V domains shown)
VH: EVQLVESGGGLVQPGRSLRLSCAASGFTFDDYAMHWVRQAPGKGLEWVSGISWNRGSIGYADSVKGRFTISRDNAKNSLYLQMSSLRAEDTALYYCAKDGERWDSVVVPSARNGMDVWGQGTTVTVSS
VL: QSVLTQPPSVSGAPGQRVTISCTGSSSNIGAGYDVHWYQQLPGTAPKLLIYGNSNRPSGVPDRFSGSKSGTSASLAITGLQAEDEADYYCQSYDSSLSGSYVFGTGTKVTVLG
B2: mAb10986 (antibody, V domains shown)
VH: EVQLVESGGGLVQPGGSLRLSCAASEFTVSSNYMSWVRQAPGKGLEWVSVIYSGGSTFYADSVKGRFTISRDNSKNTLYLQMNSLRAEDTAVYYCARALPYGDLHFDYWGQGTLVTVSS
VL: B1 VL with A31T, S54T, G99D
B3: mAb10989 (antibody, V domains shown)
VH: QVQLVQSGAEVKKPGASVKVSCKASGYIFTGYYMHWVRQAPGQGLEWMGWINPNSGGANYAQKFQGRVTLTRDTSITTVYMELSRLRFDDTAVYYCARGSRYDWNQNNWFDPWGQGTLVTVSS
VL: QSALTQPASVSGSPGQSITISCTGTSSDVGTYNYVSWYQQHPGKAPKLMIFDVSNRPSGVSDRFSGSKSGNTASLTISGLQAEDEADYYCSSFTTSSTVVFGGGTKLTVLG
B4: mAb10969 (antibody, V domains shown)
VH: QVQLVESGGGVVQPGRSLRLSCAASGFTFSSYAMHWVRQAPGKGLEWVAVISYDGSNKYYADSVKGRFTISRDNSKNTLYLQMNSLRAEDTAVYYCARDGRTITMVRGVIDDAFDIWGQGTMVTVSS
VL: not shown
B5: mAb10971 (antibody, V domains shown)
VH: EVQLVESGGGLIQPGGSLRLSCAASGVTVSSNYMSWVRQAPGKGLEWVSVIYSGGSTFYSDSVKGRFSISRDNSKNTLYLQMNSLRAEDTAVYYCARDLYYYGMDVWGQGTTVTVSS
VL: DIQLTQSPSFLSASVGDRVTITCRASQGISTYLAWYQQKPGKAPKLLIYAASTLQSGVPSRFSGSGSGTEFTLTISSLQPEDFATYYCQQLDSYPGLTFGGGTKVEIKR
B6: mAb10964 (antibody, V domains shown)
VH: QVQLQESGPGLVKPSETLSLTCTVSGGSINNYYWIWIRQPPGKGLEWIGYIYHSGSTNYNPSLKSRVTISVDTSKNQFSLKVSSVTAADTAVYYCANMVRGVYEDDYWGQGTLVTVSS
VL: DIQMTQSPSSLSASVGDRVTITCRASQSISNYLNWYQQKPGKAPKLLIFAASSLRSGVPSRFSGSGSGTDFTLTISSLHPEDFATYYCQQNYNTPLTFGPGTKVDIKR
B7: mAb10965 (antibody, V domains shown)
VH: EVQLVESGGGLIQPGGSLRLSCAASVFTVSYNYMSWVRQAPGKGLEWVSVIYSGGSTYYADSVKGRFTISRDNSKNTLYLQMNSLRAEDTAVYYCARALPGWGGSFEYFDYWGQGTLVTVSS
VL: not shown
B8: mAb10966 (antibody, V domains shown)
VH: EVQLVESGGGLVQPGGSLRLSCAASGLTVSSNYMSWVRQAPGKGLEWVSVIYSGGSTFYADSVKGRFTISRDNSKNTLYLQMNSLRPEDTAVYYCAREGRIAATGYGMDVWGQGTTVTVSS
VL: not shown
B9: mAb10967 (antibody, V domains shown)
VH: EVQLVESGGGLVQPGGSLRLSCAASGFTVSSNYMSWVRQAPGKGLEWVSVIYPGGSTFYADSVKGRFTISRDNSKNTLYLQMNSLRAEDTAVYYCARDQRDFAWGQGTLVTVSS
VL: DIQMTQSPSSLSASVGDRVTITCQASQDISNYLNWYQQKPGKAPKLLIYDASNLETGVPSRFSGSGSGTDFTFTISGLQPEDIATYYCQQYDNLPPTFGQGTRLEIKR
B10: mAb10954 (antibody, V domains shown)
VH: EVQLVESGGGLVQPGGSLRLSCAASGITVSSNYMSWVRQAPGKGLEWVSLIYSGGSTYYADSVKGRFTISRDNSKNTLYLQMNSLRVEDTAVYYCARDHGMAAAGYNYWGQGTLVTVSS
VL: B9 VL with S30N, N31K, S76N, G77S, I83F, Y87F, T97A, R103K, L104V

Biological target: SARS-COV-2 RBD-mFc (SARS-CoV-2)
Test: Luminex beads

Binder | binding result
B1 | binds
B2 | binds
B3 | binds
B4 | binds
B5 | binds
B6 | binds
B7 | binds
B8 | binds
B9 | binds
B10 | binds
